{"source": "paper PMC11882435", "molecular_target": "RsmA (Pseudomonas aeruginosa) (UniProt O69078)", "sequence (O69078 whole entry)": "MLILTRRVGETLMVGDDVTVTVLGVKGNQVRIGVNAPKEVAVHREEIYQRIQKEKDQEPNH", "assay": "EMSA", "conditions": "Filter binding: 10 mM Tris-HCl pH 7.5, 100 mM KCl, 10 mM MgCl2, 10 mM DTT, 10 ug/mL heparin, RNase inhibitor, 0.5 nM RNA, 37 C 30 min; Hill coefficient 2", "data": [{"substance": "rhlI leader", "values": [{"measurement": "Kd", "value": 20.9, "unit": "nM"}]}]}
